Data reported in patent publication US5683903.

Target: macrophage scavenger receptors on transfected 293 cells (human macrophage scavenger receptor type I or type II; the filing does not say which)
Experiment: radioligand binding/uptake on transfected HEK 293 cells; about 5 µg/ml, 5 hours at 37° C.

binding/uptake (µg/mg protein): 1.75
Substance: [125I]-acetylated LDL
